Experimental data taken from patent publication US6855873.
Several values for one entry are separate records, joined by “and”; a condition that tells them apart may be missing. Equal values may be shown once. Read-outs that look alike come from different tables or passages of the source.

What was measured:
[1] = molecular target: ICP receptor sites on brush border membrane vesicles of Pieris brassicae (Pieris brassicae); assay: 125I-toxin competition binding on P. brassicae BBMV, LIGAND analysis
[2] = molecular target: ICP receptor sites on brush border membrane vesicles of the sensitive Plutella xylostella strain PxS (Plutella xylostella); assay: 125I-toxin binding on P. xylostella BBMV
[3] = molecular target: ICP receptor sites on brush border membrane vesicles of the Dipel-resistant Plutella xylostella strain PxR (Plutella xylostella); assay: cell-based or functional assay; design: unit not given beside the values
[4] = molecular target: ICP receptor sites on brush border membrane vesicles of the sensitive Plutella xylostella strain PxS (Plutella xylostella); assay: cell-based or functional assay; design: unit not given beside the values
[5] = molecular target: ICP receptor sites on brush border membrane vesicles of the Bt18 selected Manduca sexta strain (Manduca sexta); assay: cell-based or functional assay
[6] = molecular target: ICP receptor sites on brush border membrane vesicles of Manduca sexta (reference, non-selected strain) (Manduca sexta); assay: cell-based or functional assay
[7] = molecular target: ICP receptor sites on brush border membrane vesicles of the Bt2 selected Manduca sexta strain (Manduca sexta); assay: cell-based or functional assay
[8] = molecular target: ICP receptor sites on brush border membrane vesicles of the Bt18 selected Manduca sexta strain (Manduca sexta)
[9] = molecular target: ICP receptor sites on brush border membrane vesicles of the Bt2/Bt18 selected Manduca sexta strain (Manduca sexta)
[10] = molecular target: ICP receptor sites on brush border membrane vesicles of Manduca sexta (reference, non-selected strain) (Manduca sexta); assay: 125I-toxin competition binding on BBMV, filtration, LIGAND analysis
[11] = molecular target: ICP receptor sites on brush border membrane vesicles of Heliothis virescens (Heliothis virescens); assay: as above
[12] = molecular target: ICP receptor sites on brush border membrane vesicles of Manduca sexta (reference, non-selected strain) (Manduca sexta)
[13] = molecular target: ICP receptor sites on brush border membrane vesicles of Heliothis virescens (Heliothis virescens)
[14] = molecular target: ICP receptor sites on brush border membrane vesicles of the Dipel-resistant Plutella xylostella strain PxR (Plutella xylostella); assay: 125I-toxin binding on P. xylostella BBMV
[15] = molecular target: ICP receptor sites on brush border membrane vesicles of Manduca sexta (reference, non-selected strain) (Manduca sexta); remark: listed apart in the source
[16] = molecular target: ICP receptor sites on brush border membrane vesicles of Manduca sexta (reference, non-selected strain) (Manduca sexta); remark: listed apart in the source
[17] = molecular target: ICP receptor sites on brush border membrane vesicles of Manduca sexta (reference, non-selected strain) (Manduca sexta); remark: listed apart in the source

Sequence of Bt14 toxin (P0A374 30-647 limits assumed): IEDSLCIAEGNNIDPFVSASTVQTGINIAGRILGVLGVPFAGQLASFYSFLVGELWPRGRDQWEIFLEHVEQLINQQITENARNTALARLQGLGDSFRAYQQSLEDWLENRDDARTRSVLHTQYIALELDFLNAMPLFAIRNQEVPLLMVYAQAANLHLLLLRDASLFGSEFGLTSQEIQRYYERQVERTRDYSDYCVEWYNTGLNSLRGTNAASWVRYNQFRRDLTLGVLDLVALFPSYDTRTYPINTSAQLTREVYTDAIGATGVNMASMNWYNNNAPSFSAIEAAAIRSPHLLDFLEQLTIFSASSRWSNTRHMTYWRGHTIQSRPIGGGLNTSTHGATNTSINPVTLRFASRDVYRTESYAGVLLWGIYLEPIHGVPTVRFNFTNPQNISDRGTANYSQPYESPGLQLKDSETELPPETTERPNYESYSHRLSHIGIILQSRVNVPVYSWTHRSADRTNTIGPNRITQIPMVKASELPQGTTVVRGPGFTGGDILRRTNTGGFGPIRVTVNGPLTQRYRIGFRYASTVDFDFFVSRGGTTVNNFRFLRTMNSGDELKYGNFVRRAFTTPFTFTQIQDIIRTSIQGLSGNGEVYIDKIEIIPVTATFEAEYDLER
Sequence of Bt3 toxin (P0A366 29-618 limits assumed): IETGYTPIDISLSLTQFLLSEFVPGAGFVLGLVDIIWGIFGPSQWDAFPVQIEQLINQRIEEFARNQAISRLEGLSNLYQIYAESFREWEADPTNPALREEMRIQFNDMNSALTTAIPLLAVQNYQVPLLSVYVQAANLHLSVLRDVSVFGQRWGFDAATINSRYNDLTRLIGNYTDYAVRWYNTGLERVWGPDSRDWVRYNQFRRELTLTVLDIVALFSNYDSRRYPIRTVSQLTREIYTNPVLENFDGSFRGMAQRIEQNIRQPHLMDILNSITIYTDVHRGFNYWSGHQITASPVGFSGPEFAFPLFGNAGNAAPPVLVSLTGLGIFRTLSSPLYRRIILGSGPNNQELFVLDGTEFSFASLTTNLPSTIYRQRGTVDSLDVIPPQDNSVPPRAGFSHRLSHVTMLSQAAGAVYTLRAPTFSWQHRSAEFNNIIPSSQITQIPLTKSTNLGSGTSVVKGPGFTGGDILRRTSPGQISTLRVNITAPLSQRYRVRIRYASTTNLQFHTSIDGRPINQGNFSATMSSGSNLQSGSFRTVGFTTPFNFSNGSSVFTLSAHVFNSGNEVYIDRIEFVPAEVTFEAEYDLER

Substance | Kd [1] [nM] | Rt (binding site concentration) (pmol/mg vesicle protein) [1] | Kd [2] [nM] | Rt (binding site concentration) (pmol/mg protein) [2] | LC50 (larval mortality, artificial diet) (ng protein per cm^2 of artificial diet) [3] | LC50 (larval mortality, artificial diet) (ng protein per cm^2 of artificial diet) [4] | Kd [10] [nM] | Rt (binding site concentration) (pmol/mg vesicle protein) [10] | Kd [11] [nM] | Rt (binding site concentration) (pmol/mg vesicle protein) [11] | amount bound with labeled toxin alone (cpm) [12] [cpm] | amount bound with labeled toxin alone (cpm) [13] [cpm] | further results
Bt2 toxin (from UniProt P0A370 29-607) (ligand) | 2.8 | 12.9 | 8.1 | 1.6 | > 1350 | 6.7 | 0.4 | 3.4 | 0.6 | 9.7 | 1820 | 1780 | LC50 (Bt2 sensitivity) [5]: 4 ng/cm^2; LC50 (Bt2 sensitivity) [6]: 20 ng/cm^2; LC50 of the 20th generation [7]: 6400 µg/g; Kd [8]: 0.4 nM; Rt (binding site concentration) (pmoles/mg vesicle protein) [8]: 20.8; Kd [9]: 0.4 nM; Rt (binding site concentration) (pmol/mg vesicle protein) [9]: 3.4
Bt3 toxin (from UniProt P0A366 29-618) (ligand) |  |  |  |  |  |  | 1.5 | 9.8 | 1.2 | 3.7 | 601 | 472 | 
Bt14 toxin (from UniProt P0A374 30-647) (ligand) | 8.4 | 21.4 |  |  |  |  |  |  |  |  |  |  | 
Bt15 toxin (from UniProt P0A376 28-627) (ligand) |  |  | 1.9 | 4.2 | 120 | 133 |  |  |  |  |  |  | Kd [14]: 3.7 nM; Rt (binding site concentration) (pmol/mg protein) [14]: 5.8; Kd [15]: 0.3 nM and 2.9 nM; Rt1 (binding site concentration) (pmol/mg vesicle protein) [16]: 5.9; Rt2 (binding site concentration) (pmol/mg vesicle protein) [17]: 6.7
Bt73 toxin (from UniProt P05068 29-623) (ligand) |  |  |  |  |  |  | 0.6 | 4 | 0.8 | 19.5 | 2380 | 6610 | 
